# Results: paper PMC12501149 (2025)
# Where no end group is shown, it is not given here.
# B1: fzd13 (designed binder)
# chain: AEKEVQELIDKALNTPDPKVASKYIISAVYVAAKARDPSLFQSALDTAKKL
# B2: ss2cspg18 (designed binder)
# chain: MDEKVEKLKECLEKLKEKGDIKGVIDTERAIRICERSRHKEFCEWAIEKCENRIKES
# modifications: disulfide (positions not given here)
# B3: fzd48 (designed binder)
# chain: KEELEKMIEELKKLIENGDKENFIKLFDEAFKKAKESRDPRTIASVWTLVLEFKNKN
# B4: cspg4 (designed minibinder) (designed binder)
# chain: ENKLARAVVTVNKSWLATQLFVRLYRLCKAGDPRCEEVAEKLRKVLELQGVPETDIELVVEVAKG
# What was measured:
# [1] = biological target: TcdB 1285-1804 with C-terminal Avitag (RBD toxin fragment), biotinylated (Clostridioides difficile, UniProt P18177 1285-1804); assay: SPR
# [2] = biological target: Clostridioides difficile toxin B (TcdB), full-length TcdB1 (VP10463) (Clostridioides difficile, UniProt P18177 1-2366); assay: SPR
# Clostridioides difficile toxin B (TcdB), full-length TcdB1 (VP10463), sequence (P18177 whole entry): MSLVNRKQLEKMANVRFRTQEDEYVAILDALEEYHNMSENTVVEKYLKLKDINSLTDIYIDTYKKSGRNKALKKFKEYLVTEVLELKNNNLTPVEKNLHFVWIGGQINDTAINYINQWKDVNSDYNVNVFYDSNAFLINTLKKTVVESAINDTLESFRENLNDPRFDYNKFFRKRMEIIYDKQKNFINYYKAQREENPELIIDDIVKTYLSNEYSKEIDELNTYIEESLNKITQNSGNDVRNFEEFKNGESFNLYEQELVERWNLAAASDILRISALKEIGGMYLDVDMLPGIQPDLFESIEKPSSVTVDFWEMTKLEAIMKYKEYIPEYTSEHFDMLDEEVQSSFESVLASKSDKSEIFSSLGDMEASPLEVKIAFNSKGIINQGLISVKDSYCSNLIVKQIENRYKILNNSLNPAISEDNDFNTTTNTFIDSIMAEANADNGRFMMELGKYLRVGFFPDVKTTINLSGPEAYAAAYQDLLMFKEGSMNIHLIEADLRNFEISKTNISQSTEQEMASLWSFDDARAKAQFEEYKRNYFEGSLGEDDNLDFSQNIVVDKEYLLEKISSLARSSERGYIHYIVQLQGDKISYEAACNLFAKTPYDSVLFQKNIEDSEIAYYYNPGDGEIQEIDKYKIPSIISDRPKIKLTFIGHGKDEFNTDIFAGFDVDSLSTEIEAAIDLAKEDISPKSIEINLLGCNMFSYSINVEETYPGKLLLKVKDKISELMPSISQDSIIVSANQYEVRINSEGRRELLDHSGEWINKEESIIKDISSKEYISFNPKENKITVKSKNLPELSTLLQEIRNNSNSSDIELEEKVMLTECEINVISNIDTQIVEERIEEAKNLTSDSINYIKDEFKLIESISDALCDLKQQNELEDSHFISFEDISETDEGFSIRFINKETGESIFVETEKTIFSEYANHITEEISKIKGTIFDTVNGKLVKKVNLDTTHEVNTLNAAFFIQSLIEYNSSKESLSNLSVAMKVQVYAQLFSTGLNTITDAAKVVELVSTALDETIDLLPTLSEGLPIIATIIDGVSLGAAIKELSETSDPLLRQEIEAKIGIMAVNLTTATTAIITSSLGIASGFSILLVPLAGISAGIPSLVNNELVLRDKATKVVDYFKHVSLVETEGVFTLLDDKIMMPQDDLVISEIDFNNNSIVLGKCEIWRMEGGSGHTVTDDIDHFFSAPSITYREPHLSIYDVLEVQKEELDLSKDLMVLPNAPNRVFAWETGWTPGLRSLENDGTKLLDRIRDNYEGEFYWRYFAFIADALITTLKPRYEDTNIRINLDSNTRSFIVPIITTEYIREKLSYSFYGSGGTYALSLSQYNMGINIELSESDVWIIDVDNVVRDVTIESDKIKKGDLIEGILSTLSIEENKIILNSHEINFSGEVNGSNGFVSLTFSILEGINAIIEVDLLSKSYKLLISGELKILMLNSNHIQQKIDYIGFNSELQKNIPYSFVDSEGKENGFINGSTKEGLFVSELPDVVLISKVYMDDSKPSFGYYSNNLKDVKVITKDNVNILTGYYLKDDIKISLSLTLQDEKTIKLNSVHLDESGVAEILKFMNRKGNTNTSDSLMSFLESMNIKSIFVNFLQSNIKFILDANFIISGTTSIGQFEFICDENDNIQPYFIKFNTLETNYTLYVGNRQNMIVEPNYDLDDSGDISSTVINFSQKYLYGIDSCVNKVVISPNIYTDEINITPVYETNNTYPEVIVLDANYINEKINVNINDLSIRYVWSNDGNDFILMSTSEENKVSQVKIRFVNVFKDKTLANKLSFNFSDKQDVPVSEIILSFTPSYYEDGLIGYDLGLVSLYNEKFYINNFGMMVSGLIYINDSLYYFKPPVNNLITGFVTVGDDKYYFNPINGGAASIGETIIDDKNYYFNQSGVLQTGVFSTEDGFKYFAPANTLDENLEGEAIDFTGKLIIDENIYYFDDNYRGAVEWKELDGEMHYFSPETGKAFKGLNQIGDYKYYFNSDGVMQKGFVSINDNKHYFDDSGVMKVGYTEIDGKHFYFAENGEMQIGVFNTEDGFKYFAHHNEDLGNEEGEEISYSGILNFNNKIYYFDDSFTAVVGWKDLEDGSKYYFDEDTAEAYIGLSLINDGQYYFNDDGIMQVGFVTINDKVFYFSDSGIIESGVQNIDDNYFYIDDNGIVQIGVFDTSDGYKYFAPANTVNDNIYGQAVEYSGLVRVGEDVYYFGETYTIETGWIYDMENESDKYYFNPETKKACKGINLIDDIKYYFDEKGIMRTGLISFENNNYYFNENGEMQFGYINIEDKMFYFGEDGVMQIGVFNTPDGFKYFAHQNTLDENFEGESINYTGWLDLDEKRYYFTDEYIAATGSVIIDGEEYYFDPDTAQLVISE
# TcdB 1285-1804 with C-terminal Avitag (RBD toxin fragment), biotinylated, sequence (P18177 1285-1804): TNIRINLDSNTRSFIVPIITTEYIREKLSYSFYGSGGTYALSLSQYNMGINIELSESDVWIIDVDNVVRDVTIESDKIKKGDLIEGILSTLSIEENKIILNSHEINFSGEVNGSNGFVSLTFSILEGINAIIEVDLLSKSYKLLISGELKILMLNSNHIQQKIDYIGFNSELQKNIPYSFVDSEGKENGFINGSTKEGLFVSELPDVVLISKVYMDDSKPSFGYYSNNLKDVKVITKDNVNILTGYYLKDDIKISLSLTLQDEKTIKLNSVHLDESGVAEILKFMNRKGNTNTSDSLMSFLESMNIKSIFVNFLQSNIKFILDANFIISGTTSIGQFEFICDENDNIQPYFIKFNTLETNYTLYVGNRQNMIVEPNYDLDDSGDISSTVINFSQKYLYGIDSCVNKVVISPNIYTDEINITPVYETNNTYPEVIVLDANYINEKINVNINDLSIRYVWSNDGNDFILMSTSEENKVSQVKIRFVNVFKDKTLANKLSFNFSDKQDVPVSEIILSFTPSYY
Binder,Kd [1] [nM],Kd [2] [nM]
B1,0.0056,
B2,,0.87
B3,< 0.01,
B4,,2
